In the supplement of paper PMC10567573:

B1: C10orf62 (parent)
chain: RALEEVEMKLQKNFLTQRENTIAG
B2: DFFB (parent)
chain: TLVEAIKEQDGREVDWEYFYGLLF

Variants of: B1
Test: protein stability index of a GFP-peptide fusion (GPS, HEK-293T) (PSI 1-6); higher = more stable
Details: c terminus: a fixed tail appended
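Also: lentivirally expressed fusions sorted by FACS into six bins by GFP to DsRed ratio, PSI derived from sequencing read proportions per bin multiplied by bin number.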

Protein stability index, by site and new letter:
T21: M 3.27 | H 3.69 | C 3.73 | V 3.36 | D 3.92 | A 3.56 | K 3.51 | I 3.34 | R 3.2 | Y 2.69
Q17: H 3.31 | M 3.56 | P 3.69 | G 3.73 | D 4.13 | V 3.06 | S 3.85 | W 2.92 | T 3.2 | C 3.21 | A 3.42 | N 3.89
R1: G 4.34 | E 4.39 | K 3.6 | I 2.91 | H 3.69 | C 1.89 | M 3.33 | P 4.55 | Y 3.29 | T 4.32 | Q 3.5 | S 3.85 | F 3.17 | N 4.37
M8: K 2.63 | I 3.26 | N 3.75 | Q 4.12 | R 3.38 | V 3.35 | E 4.92
A2: P 4.4 | R 3.61 | I 2.66 | S 3.9 | K 3.7 | G 4.1 | V 2.96
E19: V 2.3 | Q 2.84 | A 3.82 | C 2.33 | K 3.53 | F 1.86 | S 3.37 | Y 1.81 | W 2.05 | D 3.78
E7: I 3.36 | V 1.27 | T 2.6 | G 2.84 | S 2.97 | P 3.98
L3: H 4.34 | E 5.08 | V 4.27 | D 4.8 | T 4.12 | P 4.26 | A 4.17 | M 3.86 | N 4.91 | R 4.09 | Y 3.5 | F 4.04
N13: Q 3.4 | P 3.96 | M 3.02 | W 1.36 | R 3.42 | V 3 | H 2.72 | A 2.58 | K 3.3 | C 3.23 | D 3.89
K9: W 1.4 | E 3.9 | G 3.75 | I 2.08 | R 2.31 | Y 1.67 | C 2.41 | M 2.79 | F 2.24 | N 2.98 | P 3.51 | T 3.4 | A 3.09 | Q 3.13 | V 2.55
L10: G 4.29 | N 4.25 | M 3.75 | K 4.35 | P 4.4 | W 2.88 | Y 3.67
F14: W 3.61 | P 4.66 | S 4.37 | E 4.61 | K 4.11 | N 4.49 | V 3.97 | Y 3.69 | A 4.72 | R 4.33
R18: E 4.29 | P 3.72 | Y 2.64 | H 3.96 | K 3.74 | W 2.47 | Q 3.85 | N 4.05 | I 3.09 | V 2.35 | S 4.18 | A 3.19 | D 4.59 | L 2.08
G24: K 4.19 | Y 2.18 | R 3.5 | M 3.08 | P 3.71 | W 3.48 | H 3.07 | V 2.85 | I 2.31 | L 2.65 | Q 3.6
A23: D 4.19 | L 3.02 | C 3.36 | Q 3.64 | E 4.28 | V 3.44 | S 3.42 | N 3.2
N20: I 2.61 | W 2.03 | H 2.85 | F 2.52 | A 3.24 | L 2.45 | V 3.35 | T 3.7 | G 3.6 | P 3.73 | C 3.07 | D 3.96 | R 3.29
V6: L 3.52 | I 2.52 | H 4.58 | A 3.19 | N 4.33 | R 4.13 | C 3.56 | K 4.43 | F 3.76 | S 4.27 | M 3.23 | Q 3.93 | D 4.17 | P 4.17
Q11: D 4.43 | L 2.28 | T 3.73 | R 3.71 | M 2.64 | G 3.63 | S 3.48 | P 3.9 | N 3.51 | F 2.44 | E 4.28 | V 2.82 | Y 2.78 | H 2.94 | C 3.52 | I 2.13
T16: Y 2.74 | P 3.09 | F 3.26 | I 3.06 | E 3.91 | K 3.54 | H 3.44 | A 2.98 | Q 3.45 | N 2.83 | G 4.06 | D 4.09
E4: S 3.64 | V 2.36 | W 1.92 | Q 2.89 | G 4.05
L15: G 3.9 | P 3.89 | N 3.99 | M 3.62 | E 4.3 | K 4.21 | D 4.69
I22: R 3.15 | V 3.59 | S 3.88 | N 3.98 | Q 4.09 | L 3.21 | W 2.38 | D 4.11 | F 2.68 | Y 3.38
K12: N 4.44 | A 3.77 | C 3.3 | L 2.67 | Q 3.72 | E 4.05 | M 2.86 | D 4.03 | G 3.77 | Y 2.3
E5: M 2.23 | D 3.67 | K 3.76 | V 1.51 | Q 3.22 | N 3.98 | R 3.12 | Y 2.27 | T 3.02 | A 2.7 | P 3.19 | F 2.11 | I 1.93 | L 2 | S 3.51 | H 3.02

Variants of: B2
Test: as above
Details: c terminus: a fixed tail appended

Protein stability index: each site, then its substitutions
A5: E 2.29 | I 1.36 | C 1.95 | G 2.68 | D 2.54 | F 1.89 | H 1.98
E4: V 2.87 | H 1.97 | F 2.38 | P 2.08 | L 1.93 | S 2.62 | W 1.76 | D 1.68 | G 2.26 | C 2.92 | I 1.57 | T 1.58 | A 1.37 | N 2.11 | K 2.99 | Q 1.97
V3: E 2.86 | D 2.65 | Q 1.88 | G 1.58 | L 2.22 | M 2.28 | F 2 | C 1.94 | A 1.95 | I 3.34 | H 2.16 | S 3.22 | T 2.53 | W 1.76 | K 2.88 | N 2.21 | Y 1.39 | P 2.16 | R 2.23
L2: D 2.17 | N 2.31 | V 2.4 | Y 1.71 | P 2.41 | F 1.95 | S 3.15 | R 2.77 | W 1.92 | H 1.92 | E 3.08 | G 2.5 | C 2.16 | I 2.35 | Q 1.41 | T 2.2 | M 2.15 | A 3.03
T1: V 3.13 | D 2.24 | N 2.02 | E 2.9 | Q 2.37 | F 2.56 | S 1.41 | W 1.65 | P 2.54 | Y 2.13 | A 2.32 | G 2.05 | H 1.89 | R 1.59 | K 2.37 | L 1.58 | M 1.31
